Data as given in patent publication US20190142963A1 (INDIANA UNIVERSITY RESEARCH AND TECHNOLOGY, published 2019).
Non-standard residues stand in square brackets, D forms with d. No end group written: not given here.

T1: human Klotho β (human, UniProt Q86Z14 1-1044)
T1 sequence (looked up): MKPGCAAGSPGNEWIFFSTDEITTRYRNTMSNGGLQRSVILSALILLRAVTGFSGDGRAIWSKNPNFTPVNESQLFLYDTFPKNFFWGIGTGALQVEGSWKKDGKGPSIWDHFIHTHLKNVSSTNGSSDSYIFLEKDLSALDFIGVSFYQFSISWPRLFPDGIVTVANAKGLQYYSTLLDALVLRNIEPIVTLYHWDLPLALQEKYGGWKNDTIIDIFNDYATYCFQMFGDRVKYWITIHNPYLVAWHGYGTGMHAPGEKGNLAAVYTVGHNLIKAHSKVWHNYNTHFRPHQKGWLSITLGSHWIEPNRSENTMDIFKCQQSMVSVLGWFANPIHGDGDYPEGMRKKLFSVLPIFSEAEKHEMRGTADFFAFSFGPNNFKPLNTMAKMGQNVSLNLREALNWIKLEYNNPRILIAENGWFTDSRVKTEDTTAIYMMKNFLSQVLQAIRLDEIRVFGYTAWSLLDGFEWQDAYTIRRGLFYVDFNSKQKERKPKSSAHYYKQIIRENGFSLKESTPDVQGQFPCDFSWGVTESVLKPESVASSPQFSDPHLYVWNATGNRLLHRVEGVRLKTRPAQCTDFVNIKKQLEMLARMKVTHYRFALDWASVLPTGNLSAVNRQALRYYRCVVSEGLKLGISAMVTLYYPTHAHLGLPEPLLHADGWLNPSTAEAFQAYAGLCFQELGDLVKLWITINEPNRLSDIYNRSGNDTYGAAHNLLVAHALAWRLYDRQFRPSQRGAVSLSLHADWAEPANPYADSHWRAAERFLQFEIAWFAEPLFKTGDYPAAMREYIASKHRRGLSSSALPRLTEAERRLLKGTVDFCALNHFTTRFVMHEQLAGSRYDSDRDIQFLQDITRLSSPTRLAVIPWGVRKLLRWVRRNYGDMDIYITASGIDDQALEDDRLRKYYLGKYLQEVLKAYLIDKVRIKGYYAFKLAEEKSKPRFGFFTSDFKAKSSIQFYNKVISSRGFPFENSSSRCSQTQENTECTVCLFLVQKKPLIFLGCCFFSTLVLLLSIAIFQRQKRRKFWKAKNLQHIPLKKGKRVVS


Molecular target: T1, human Klotho β
Assay: cell-based or functional assay

IC-50 of antagonism of FGF21 (pErk1/2, 293 HEK hKLB cells) [µM] | IC-50 of antagonistic activity (FIG. 8B) [µM] | % maximal activity, Erk1/2 phosphorylation in 293T HEK hKLB cells (FIG. 9B) [%] | EC-50 of Erk1/2 phosphorylation in 293T HEK hKLB cells (FIG. 9B) [nM] | IC-50 of antagonistic activity (FIG. 8A) [nM] | Molecule
> 2 | – | – | – | – | FGF19 169-194 alanine mutant S189 (from UniProt O95750 169-194) (peptide)
> 2 | – | – | – | – | FGF19 169-194 alanine mutant S191 (from UniProt O95750 191-216) (peptide)
2.97 | – | – | – | – | FGF19 169-194 alanine mutant F192 (from UniProt O95750 191-216) (peptide)
0.27 | 0.05 | – | – | – | FGF19 169-194 (from UniProt O95750 169-194) (peptide)
> 2 | – | – | – | – | FGF19 169-194 alanine mutant P190 (from UniProt O95750 191-216) (peptide)
0.2 | – | – | – | – | FGF19 169-194 alanine mutant L184 (from UniProt O95750 191-216) (peptide)
– | – | 31 | 8.1 | – | FGF19 K194A (from UniProt O95750 25-216) (ligand)
– | – | – | – | 22.3 | FGF19 169-194 K194S (from UniProt O95750 191-216) (peptide)
0.43 | – | – | – | – | FGF19 169-194 alanine mutant E185 (from UniProt O95750 191-216) (peptide)
0.4 | – | – | – | – | FGF19 169-194 alanine mutant G183 (from UniProt O95750 191-216) (peptide)
– | – | – | – | 87.9 | FGF19 169-194 K194E (from UniProt O95750 191-216) (peptide)
3.39 | – | – | – | – | FGF19 169-194 alanine mutant S174 (from UniProt O95750 191-216) (peptide)
2.17 | – | – | – | – | FGF19 169-194 alanine mutant L170 (from UniProt O95750 191-216) (peptide)
0.46 | – | – | – | – | FGF19 169-194 alanine mutant D173 (from UniProt O95750 191-216) (peptide)
0.85 | – | – | – | – | FGF19 169-194 alanine mutant E193 (from UniProt O95750 169-194) (peptide)
0.38 | – | – | – | – | FGF19 169-194 alanine mutant R188 (from UniProt O95750 191-216) (peptide)
0.12 | – | – | – | – | FGF19 169-194 alanine mutant E171 (from UniProt O95750 191-216) (peptide)
1.93 | – | – | – | – | FGF19 169-194 alanine mutant G179 (from UniProt O95750 191-216) (peptide)
0.21 | – | – | – | – | FGF19 169-194 alanine mutant P169 (from UniProt O95750 191-216) (peptide)
0.15 | – | – | – | – | FGF19 169-194 alanine mutant M175 (from UniProt O95750 191-216) (peptide)
1.81 | – | – | – | – | FGF19 169-194 alanine mutant V181 (from UniProt O95750 191-216) (peptide)
1.4 | – | – | – | – | FGF19 169-194 alanine mutant T172 (from UniProt O95750 191-216) (peptide)
0.69 | – | – | – | – | FGF19 169-194 alanine mutant V187 (from UniProt O95750 191-216) (peptide)
0.52 | – | – | – | – | FGF19 169-194 alanine mutant T182 (from UniProt O95750 191-216) (peptide)
– | – | – | – | 17.3 | FGF19 169-194 K194L (from UniProt O95750 191-216) (peptide)

Molecular target: T1, human Klotho β
Assay: cell-based or functional assay
Remark: another data set of the same source

% max activity of antagonism of FGF21 (pErk1/2, 293 HEK hKLB cells) [%] | IC-50 of antagonism of FGF21 (pErk1/2, 293 HEK hKLB cells) [nM] | Molecule
101 | 120 | PPDVGSSDPLSMVGPAQGRSPSYAS [FGF21 25mer A16]
102 | 90.1 | PPDVASSDPLSMVGPSQGRSPSYAS [FGF21 25mer A5]
93.9 | 134 | PPDVGSSDPLSMVGASQGRSPSYAS [FGF21 25mer A15]
97.7 | 136 | PPDVGSSDPLSMVAPSQGRSPSYAS [FGF21 25mer A14]
98 | 102 | PPDVGSSDPLAMVGPSQGRSPSYAS [FGF21 25mer A11]
94.5 | 359 | PPDVGSADPLSMVGPSQGRSPSYAS [FGF21 25mer A7]
99.7 | 139 | PPDVGSSDPLSMVGPSAGRSPSYAS [FGF21 25mer A17]

Molecular target: T1, human Klotho β
Assay: cell-based or functional assay
Remark: another data set of the same source

IC-50 of antagonism of FGF21 (pErk1/2, 293 HEK hKLB cells) [µM] | Molecule
0.11 | PPDVGSSDPLSMVGPAQGRSPSYAS [FGF21 25mer A16]
0.09 | PPDVASSDPLSMVGPSQGRSPSYAS [FGF21 25mer A5]
0.12 | PPDVGSSDPLSMVGASQGRSPSYAS [FGF21 25mer A15]
0.13 | PPDVGSSDPLSMVAPSQGRSPSYAS [FGF21 25mer A14]
0.15 | PPDVGSSDPLAMVGPSQGRSPSYAS [FGF21 25mer A11]
0.36 | PPDVGSADPLSMVGPSQGRSPSYAS [FGF21 25mer A7]
0.13 | PPDVGSSDPLSMVGPSAGRSPSYAS [FGF21 25mer A17]
0.005 | PLETDSMDPFGLVTGLEAVRSPSFEA [FGF19 169-194 K194A]

Molecular target: T1, human Klotho β
Assay: cell-based or functional assay
Remark: another data set of the same source

% Activity vs C25 [%] | IC50 of antagonism of FGF21 (assay of Example 1) [nM] | Molecule
7.61 | 4720 | P[dP]DVGSSDPLSMVGPSQGRSPSYAS-NH2 [FGF21 C25 d2]
3.8 | 7800 | PPDVGSSDPLSMVGPSQGRS[dP]SYAS-NH2 [FGF21 C25 d21]
119 | 264 | PPDVGSSDPLSMVGPSQGRSPSYA[dS]-NH2 [FGF21 C25 d25]
15.6 | 6100 | PP[dD]VGSSDPLSMVGPSQGRSPSYAS-NH2 [FGF21 C25 d3]
46 | 531 | PPDVGSSDPLSMVGP[dS]QGRSPSYAS-NH2 [FGF21 C25 d16]
32.3 | 1130 | PPDVGSSDPLSMVGPSQGRSPSY[dA]S-NH2 [FGF21 C25 d24]
32.5 | 1980 | PPDVG[dS]SDPLSMVGPSQGRSPSYAS-NH2 [FGF21 C25 d6]
90.3 | 262 | PPDVGSSDPLSMVGPS[dQ]GRSPSYAS-NH2 [FGF21 C25 d17]
54.2 | 877 | [dP]PDVGSSDPLSMVGPSQGRSPSYAS-NH2 [FGF21 C25 d1]
2.3 | 33700 | PPDVGSSDPLSMVGPSQGR[dS]PSYAS-NH2 [FGF21 C25 d20]
66.8 | 375 | PPDVGSSDPLSMVG[dP]SQGRSPSYAS-NH2 [FGF21 C25 d15]
